Target: T1, recombinant human PDGF receptor α extracellular domain (PDGF sRα) (human, UniProt P16234 24-528, biotin (biotin-X-NHS) in the direct-binding ELISA on PDGF-coated wells; not said to be biotinylated in the blocking ELISA)
T1 construct: PDGF receptor α, human, extracellular domain; also called soluble PDGF receptor α; sRα-bio; source: bought: R&D Systems
Assay: ELISA; serially diluted biotinylated PDGF sRα added to PDGF-coated wells; detected with streptavidin-HRP
Details: both partners purified

T1 sequence (P16234 24-528): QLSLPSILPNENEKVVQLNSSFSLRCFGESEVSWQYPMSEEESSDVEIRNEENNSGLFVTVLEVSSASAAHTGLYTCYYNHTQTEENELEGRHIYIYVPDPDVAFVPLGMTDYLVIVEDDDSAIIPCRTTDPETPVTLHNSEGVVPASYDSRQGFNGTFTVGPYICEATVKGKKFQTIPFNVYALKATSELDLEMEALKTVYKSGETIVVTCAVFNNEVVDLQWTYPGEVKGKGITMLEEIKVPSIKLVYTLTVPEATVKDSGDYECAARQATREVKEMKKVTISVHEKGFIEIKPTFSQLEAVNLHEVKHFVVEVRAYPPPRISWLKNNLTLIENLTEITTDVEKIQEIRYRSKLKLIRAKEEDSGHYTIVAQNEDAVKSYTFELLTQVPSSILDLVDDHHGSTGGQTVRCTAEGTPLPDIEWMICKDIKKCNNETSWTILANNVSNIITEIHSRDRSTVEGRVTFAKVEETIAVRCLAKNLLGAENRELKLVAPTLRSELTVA

B1: recombinant human PDGF-BB (ligand, UniProt P01127 82-190, looked up)
chain: SLGSLTIAEPAMIAECKTRTEVFEISRRLIDRTNANFLVWPPCVEVQRCSGCCNNRNVQCRPTQVQLRPVQVRKIEIVRKKPIFKKATVTLEDHLACKCETVAAARPVT
notes: PDGF-B chain, human; homodimer; source: bought: R&D Systems
- binding result: binds
